Sequences and labels used below:
B1: UNC119B, full-length, C-terminal His6 (natural protein)
chain: not shown
B2: FMNL1 peptide Myr-GNAAGSAEQPAGK-FAM (peptide)
peptide: Myristoyl-GNAAGSAEQPAGK(FAM)

No end group written: not given here. *: point of attachment. Myristoyl = CCCCCCCCCCCCCC(=O)*

The first experiment has as its target B2. The experiment can be described thus: fluorescence polarisation.
With B1, the “fold lower affinity than to UNC119A” value came out at 9.5 fold.

The target in the next experiment is B1. In words: fluorescence polarisation. On the technique in general: In fluorescence polarisation assays a small probe gives low polarisation when free and higher when bound to something large.
As a reminder, the Kd is a measure of binding affinity in units of concentration. A higher Kd goes with lower affinity. For Myristoyl-GGAVSAGEDNDDK(FAM) [PCMTD1 peptide Myr-GGAVSAGEDNDDK-FAM], binding was put at a Kd of 72.6 nM. Consider Myristoyl-GNAAAAKKGK(FAM) [PKA peptide Myr-GNAAAAKKGK-FAM], for which the binding result is “binds”. On to Myristoyl-GAGASAEEKHSRK(FAM) [GNAT1 peptide Myr-GAGASAEEKHSRK-FAM], for which the binding result is “binds”.

GCGCSSHPEDK (not fully specified; N-terminal myristoyl on Gly; FAM on the C-terminal Lys) [LCK peptide Myr-GCGCSSHPEDK-FAM]: the Kd was found to be 0.37 nM. In turn, Myristoyl-GTASSLVSPAGGK(FAM) [NPHP3 peptide Myr-GTASSLVSPAGGK-FAM] showed a Kd of 0.17 nM. In the case of Myristoyl-GCTVSAEDK(FAM) [GNAI2 peptide Myr-GCTVSAEDK-FAM], the binding result is given as “binds”. Turning to Myristoyl-GAAASRRRAK(FAM) [NSMF peptide Myr-GAAASRRRAK-FAM], the binding result is recorded as “binds”. Still for that read-out and setting: to B2 belongs “binds”.

For the next experiment, the target named is UNC119A, full-length, C-terminal His6 (human, UniProt Q13432 1-240). The experiment can be described thus: fluorescence polarisation.
Myristoyl-GGAVSAGEDNDDK(FAM) [PCMTD1 peptide Myr-GGAVSAGEDNDDK-FAM] yielded a Kd of 5.25 nM. For Myristoyl-GNAAAAKKGK(FAM) [PKA peptide Myr-GNAAAAKKGK-FAM], the binding result is recorded as “binds”. The same measure, in the same setting: to Myristoyl-GAGASAEEKHSRK(FAM) [GNAT1 peptide Myr-GAGASAEEKHSRK-FAM] belongs “binds”.

Molecule Myristoyl-GTASSLVSPAGGK(FAM) [NPHP3 peptide Myr-GTASSLVSPAGGK-FAM] showed a Kd of 0.84 nM.

Take Myristoyl-GCTVSAEDK(FAM) [GNAI2 peptide Myr-GCTVSAEDK-FAM]: the binding result is “binds”. For the molecule Myristoyl-GAAASRRRAK(FAM) [NSMF peptide Myr-GAAASRRRAK-FAM], the binding result is on record as “binds”. Take B2: the binding result is listed as “binds”.
